Data set [1] relates to Fab30 (anti-VCIII, YSGR Min clone 30) (synthetic). The data set can be described thus: filter. The settings on record: filter binding / dot blot assay; Example 2 names the V. cholerae target VCLD1.
The subject of data set [2] is Fab29 (anti-VCIII, YSGR Min clone 29) (synthetic). The data set can be described thus: filter. The settings on record: filter binding / dot blot assay; Example 2 names the V. cholerae target VCLD1.
The test system of data set [3] is T1, Fab7 (anti-tRNAiMet) (synthetic).
T1 sequence: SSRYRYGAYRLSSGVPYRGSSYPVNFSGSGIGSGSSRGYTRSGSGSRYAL
The data set can be described thus: filter. The settings on record: soluble Fab; discrete complex also in native gel.

Data set [4] has as its system Fab1 (anti-tRNAiMet, YSGRX clone 1), phage displayed (synthetic). The experiment in a line: competition. The settings on record: competitive phage ELISA; selection RNA carried a 29 nt 3' tag. For orientation: ELISA stands for enzyme-linked immunosorbent assay.
Data set [5] has as its system Fab8 (anti-P4-P6, YSGR Min clone 8) (synthetic). The data set can be described thus: FP. The settings on record: filter binding / dot blot assay.
Data set [6] relates to Fab11 (anti-P4-P6, YSGR Min clone 11) (synthetic). The data set can be described thus: filter. The settings on record: filter binding / dot blot assay.
The test system of data set [7] is Fab16 (anti-FNIII, YSGR Min clone 16) (synthetic). The data set can be described thus: filter. The settings on record: filter binding / dot blot assay.

On to VCIII glycine riboswitch, for which the Kd in data set [1] came out at 22 nM; in data set [2] it was 38 nM. human initiator tRNAiMet transcript: the figures for the Kd in data set [3] and in data set [4] were 59 nM and 53 nM, respectively. With “P4-P6 domain of Tetrahymena group I intron”, the figures for the Kd in data set [5] and in data set [6] were 53 nM and 20 nM, respectively. Regarding FNIII glycine riboswitch, the Kd in data set [7] was determined as 160 nM.

By Kd is commonly meant the equilibrium constant for the complex coming apart. Read a high Kd as weaker binding.

Source of the values: US20140288277.
